B1: histone H4 peptide H4_(11–21) (peptide, UniProt P62805 12-22, looked up)
peptide: GKGGAKRHRKV
notes: histone H4, residues 11–21; also called H4H18 peptide; source: synthetic peptide (Peptide 2.0 Inc.)
B2: MLL4_(ePHD6)_(1475–1564) (domain or fragment, human, UniProt O14686 1475-1564, looked up)
chain: VSCMQCGAASPGFHCEWQNSYTHCGPCASLVTCPICHAPYVEEDLLIQCRHCERWMHAGCESLFTEDDVEQAADEGFDCVSCQPYVVKPV
notes: MLL4 (KMT2D, ALR), human, residues 1475–1564: the zinc finger before PHD6 and the sixth PHD domain; also called extended PHD6 domain of MLL4; source: E. coli BL21 (DE3) Codon plus RIL, purified (Ni-NTA, thrombin, HiTrap Q, Superdex75); not shown: GST, N-terminal, cleaved; His tag, N-terminal, cleaved
B3: MLL4_(PHD6)_(1505–1564) (domain or fragment, human, UniProt O14686 1505-1564, looked up)
chain: VTCPICHAPYVEEDLLIQCRHCERWMHAGCESLFTEDDVEQAADEGFDCVSCQPYVVKPV
notes: MLL4 (KMT2D), human, residues 1505–1564 (sixth PHD domain alone); also called PHD6 domain of MLL4; source: E. coli BL21 (DE3) Codon plus RIL, purified (Ni-NTA, thrombin, HiTrap Q, Superdex75); not shown: GST, N-terminal, cleaved; His tag, N-terminal, cleaved

Experiments:
MLL3_(ePHD6)_(1075–1144) = molecular target: T1, MLL3_(ePHD6)_(1075–1144) (human, UniProt Q8NEZ4 1075-1144); experiment: ITC; peptide (1–2 mM) in the syringe injected into protein (50–100 μM) in the cell; 25 °C; 20 mM Tris pH 7.5, 150 mM NaCl; single-site binding model; settings: both partners purified
T1 construct: MLL3 (KMT2C), human, residues 1075–1144; also called MLL3_ePHD6, residues 1075–1144; source: E. coli BL21 (DE3) Codon plus RIL, purified (Ni-NTA, thrombin, HiTrap Q, Superdex75); not shown: GST, N-terminal, cleaved; His tag, N-terminal, cleaved
T1 sequence (looked up): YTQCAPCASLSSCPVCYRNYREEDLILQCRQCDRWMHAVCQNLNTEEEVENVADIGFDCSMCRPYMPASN

[1] = molecular target: T2, MLL3_(PHD5-6)_(1008–1144) (human, UniProt Q8NEZ4 1008-1144); experiment: as above; settings: both partners purified
T2 construct: MLL3 (KMT2C), human, residues 1008–1144; also called PHD5–6 of MLL3; source: E. coli BL21 (DE3) Codon plus RIL, purified (Ni-NTA, thrombin, HiTrap Q, Superdex75); not shown: GST, N-terminal, cleaved; His tag, N-terminal, cleaved
T2 sequence (looked up): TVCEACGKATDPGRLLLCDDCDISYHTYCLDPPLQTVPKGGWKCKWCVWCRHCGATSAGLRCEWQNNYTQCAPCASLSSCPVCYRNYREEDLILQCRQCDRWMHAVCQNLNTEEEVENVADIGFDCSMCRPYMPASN

MLL4_(ePHD6)_(1495–1564) = molecular target: T3, MLL4_(ePHD6)_(1495–1564) (human, UniProt O14686 1495-1564); experiment: as above; settings: both partners purified
T3 construct: MLL4 (KMT2D), human, residues 1495–1564; also called MLL4_ePHD6, residues 1495–1564; source: E. coli BL21 (DE3) Codon plus RIL, purified (Ni-NTA, thrombin, HiTrap Q, Superdex75); not shown: GST, N-terminal, cleaved; His tag, N-terminal, cleaved

MLL4_(ePHD6)_(1475–1564) = molecular target: B2; experiment: as above; settings: both partners purified
MLL3_(ePHD6)_(1055–1144) = molecular target: T4, MLL3_(ePHD6)_(1055–1144) (human, UniProt Q8NEZ4 1055-1144); experiment: as above; settings: both partners purified
T4 construct: MLL3 (KMT2C), human, residues 1055–1144: the zinc finger before PHD6 and the sixth PHD domain; Monomer in solution by gel filtration; the dimer in the crystal is put down to crystal packing; also called extended PHD6 domain of MLL3; source: E. coli BL21 (DE3) Codon plus RIL, purified (Ni-NTA, thrombin, HiTrap Q, Superdex75); not shown: GST, N-terminal, cleaved; His tag, N-terminal, cleaved
T4 sequence (looked up): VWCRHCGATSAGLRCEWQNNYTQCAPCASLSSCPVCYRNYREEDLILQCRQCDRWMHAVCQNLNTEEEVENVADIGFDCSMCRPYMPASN

[2] = molecular target: the molecule itself; experiment: SEC; gel-filtration profiles of the purified domains (Supplementary Fig. 3)

Binder: B1
- Kd (MLL3_(ePHD6)_(1075–1144)): 31 µM
- Kd [1]: 83 µM
- Kd (MLL4_(ePHD6)_(1495–1564)): 48 µM
- Kd (MLL4_(ePHD6)_(1475–1564)): 52 µM
- Kd (MLL3_(ePHD6)_(1055–1144)): 35 µM

Binder: B2
- stoichiometry N [2]: 2

Binder: B3
- stoichiometry N [2]: 2
